Our source for the other: percent reduction vs wild type values is paper PMC8727025.

The target of the experiment is Arf1 Arf1-del17, lacks the first 17 amino acids (UniProt P84077). Nature of the experiment: GFP-GBF1 beads incubated with purified Arf1-del17-His. As to conditions: reference: wild type.
Arf1 Arf1-del17, lacks the first 17 amino acids, sequence (P84077 whole entry, looked up): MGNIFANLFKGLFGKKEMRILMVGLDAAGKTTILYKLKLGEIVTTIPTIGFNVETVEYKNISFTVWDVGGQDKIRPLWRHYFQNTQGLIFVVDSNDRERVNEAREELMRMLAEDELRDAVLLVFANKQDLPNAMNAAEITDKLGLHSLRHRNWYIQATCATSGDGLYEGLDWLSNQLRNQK

Turning to GBF1 (from UniProt Q92538-1) Y876F, the other: percent reduction vs wild type (sites Y876) was 40%.

GBF1 (from UniProt Q92538-1) Y898F displayed an other: percent reduction vs wild type (sites Y898) of 60%.
